# Measurements reported in patent US20120164142A1.
# Ends that are not written are not given here.
# T1: purified insulin degrading enzyme (IDE) (UniProt P14735)
# T1 sequence (looked up): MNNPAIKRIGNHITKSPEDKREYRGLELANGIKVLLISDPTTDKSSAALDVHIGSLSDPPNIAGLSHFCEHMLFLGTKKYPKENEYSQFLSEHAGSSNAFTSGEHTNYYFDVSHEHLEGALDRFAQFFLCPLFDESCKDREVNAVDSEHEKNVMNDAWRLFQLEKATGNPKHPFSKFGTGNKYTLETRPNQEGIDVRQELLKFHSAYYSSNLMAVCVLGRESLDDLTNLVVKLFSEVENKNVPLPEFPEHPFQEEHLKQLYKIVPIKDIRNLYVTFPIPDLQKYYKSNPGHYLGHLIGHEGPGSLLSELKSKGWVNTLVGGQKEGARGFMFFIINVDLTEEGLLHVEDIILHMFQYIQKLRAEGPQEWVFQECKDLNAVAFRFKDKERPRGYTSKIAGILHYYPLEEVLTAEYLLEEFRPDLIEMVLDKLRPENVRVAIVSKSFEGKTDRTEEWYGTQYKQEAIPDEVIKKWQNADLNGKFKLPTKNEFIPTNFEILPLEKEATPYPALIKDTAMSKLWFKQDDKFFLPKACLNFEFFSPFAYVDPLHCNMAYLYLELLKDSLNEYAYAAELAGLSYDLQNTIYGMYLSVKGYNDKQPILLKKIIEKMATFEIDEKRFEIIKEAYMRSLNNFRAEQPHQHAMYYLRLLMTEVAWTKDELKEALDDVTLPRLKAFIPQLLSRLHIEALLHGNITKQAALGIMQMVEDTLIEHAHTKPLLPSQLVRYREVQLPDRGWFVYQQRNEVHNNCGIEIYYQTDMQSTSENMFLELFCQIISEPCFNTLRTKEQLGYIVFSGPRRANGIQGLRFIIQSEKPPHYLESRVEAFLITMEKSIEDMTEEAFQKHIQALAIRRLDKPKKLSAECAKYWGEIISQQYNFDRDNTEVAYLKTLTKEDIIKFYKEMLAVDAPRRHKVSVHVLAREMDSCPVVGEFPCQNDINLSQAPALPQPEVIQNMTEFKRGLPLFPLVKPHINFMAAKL
# Legend:
# Test in all cases: cell-based or functional assay
# [1] = target: human natriuretic peptide receptor B (NPR-B) (human) (UniProt P20594)
# [2] = target: purified neutral endopeptidase (NEP) (UniProt P08473)
# [3] = target: T1, purified insulin degrading enzyme (IDE)
# [4] = target: human natriuretic peptide receptor A (NPR-A) (human) (UniProt P16066)
# Sequence of human natriuretic peptide receptor A (NPR-A) (human) (P16066 33-1061): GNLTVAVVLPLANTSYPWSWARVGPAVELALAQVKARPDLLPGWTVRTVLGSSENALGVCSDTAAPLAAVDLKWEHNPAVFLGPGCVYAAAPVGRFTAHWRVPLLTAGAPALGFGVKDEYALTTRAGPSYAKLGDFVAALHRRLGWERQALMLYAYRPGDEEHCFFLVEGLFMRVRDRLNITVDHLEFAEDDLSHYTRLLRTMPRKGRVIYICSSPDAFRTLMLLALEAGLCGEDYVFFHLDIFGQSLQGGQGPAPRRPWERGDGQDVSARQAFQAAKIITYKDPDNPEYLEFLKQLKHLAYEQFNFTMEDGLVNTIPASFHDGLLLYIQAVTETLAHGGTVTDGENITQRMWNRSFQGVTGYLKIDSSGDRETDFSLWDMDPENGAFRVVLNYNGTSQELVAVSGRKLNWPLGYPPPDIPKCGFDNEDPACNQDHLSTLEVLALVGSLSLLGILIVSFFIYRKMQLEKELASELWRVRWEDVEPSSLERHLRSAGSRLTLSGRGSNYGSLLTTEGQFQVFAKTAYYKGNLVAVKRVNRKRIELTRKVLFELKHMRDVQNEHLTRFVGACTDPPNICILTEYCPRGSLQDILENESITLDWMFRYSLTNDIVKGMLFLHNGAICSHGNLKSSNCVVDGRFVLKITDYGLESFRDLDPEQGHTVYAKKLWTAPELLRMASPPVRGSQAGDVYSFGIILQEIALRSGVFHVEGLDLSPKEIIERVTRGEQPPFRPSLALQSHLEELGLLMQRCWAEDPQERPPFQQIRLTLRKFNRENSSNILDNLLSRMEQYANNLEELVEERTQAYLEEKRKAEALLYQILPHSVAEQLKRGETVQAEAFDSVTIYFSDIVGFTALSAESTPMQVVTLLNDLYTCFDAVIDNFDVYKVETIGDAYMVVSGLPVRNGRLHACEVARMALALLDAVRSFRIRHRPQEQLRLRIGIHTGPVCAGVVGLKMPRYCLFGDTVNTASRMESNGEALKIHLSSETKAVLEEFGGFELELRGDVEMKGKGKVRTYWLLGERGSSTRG
# Sequence of purified neutral endopeptidase (NEP) (P08473 52-750 limits assumed): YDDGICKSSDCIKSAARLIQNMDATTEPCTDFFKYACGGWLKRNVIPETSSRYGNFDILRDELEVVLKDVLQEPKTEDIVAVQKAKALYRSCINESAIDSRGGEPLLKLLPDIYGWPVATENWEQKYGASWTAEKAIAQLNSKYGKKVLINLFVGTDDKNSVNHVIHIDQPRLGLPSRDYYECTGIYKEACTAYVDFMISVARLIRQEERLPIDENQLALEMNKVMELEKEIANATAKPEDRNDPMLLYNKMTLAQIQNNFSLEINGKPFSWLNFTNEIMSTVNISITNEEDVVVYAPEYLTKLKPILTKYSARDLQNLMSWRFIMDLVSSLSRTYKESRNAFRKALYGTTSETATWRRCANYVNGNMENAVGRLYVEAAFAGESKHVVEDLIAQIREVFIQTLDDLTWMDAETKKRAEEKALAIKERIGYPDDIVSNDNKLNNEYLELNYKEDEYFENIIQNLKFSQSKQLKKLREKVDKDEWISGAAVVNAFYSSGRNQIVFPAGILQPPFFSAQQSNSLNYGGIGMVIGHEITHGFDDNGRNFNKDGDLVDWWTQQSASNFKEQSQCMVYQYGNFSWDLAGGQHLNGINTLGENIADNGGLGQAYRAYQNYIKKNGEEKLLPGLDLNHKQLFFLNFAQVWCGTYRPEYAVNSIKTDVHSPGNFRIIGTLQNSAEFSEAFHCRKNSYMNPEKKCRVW
# Sequence of human natriuretic peptide receptor B (NPR-B) (human) (P20594 23-1047): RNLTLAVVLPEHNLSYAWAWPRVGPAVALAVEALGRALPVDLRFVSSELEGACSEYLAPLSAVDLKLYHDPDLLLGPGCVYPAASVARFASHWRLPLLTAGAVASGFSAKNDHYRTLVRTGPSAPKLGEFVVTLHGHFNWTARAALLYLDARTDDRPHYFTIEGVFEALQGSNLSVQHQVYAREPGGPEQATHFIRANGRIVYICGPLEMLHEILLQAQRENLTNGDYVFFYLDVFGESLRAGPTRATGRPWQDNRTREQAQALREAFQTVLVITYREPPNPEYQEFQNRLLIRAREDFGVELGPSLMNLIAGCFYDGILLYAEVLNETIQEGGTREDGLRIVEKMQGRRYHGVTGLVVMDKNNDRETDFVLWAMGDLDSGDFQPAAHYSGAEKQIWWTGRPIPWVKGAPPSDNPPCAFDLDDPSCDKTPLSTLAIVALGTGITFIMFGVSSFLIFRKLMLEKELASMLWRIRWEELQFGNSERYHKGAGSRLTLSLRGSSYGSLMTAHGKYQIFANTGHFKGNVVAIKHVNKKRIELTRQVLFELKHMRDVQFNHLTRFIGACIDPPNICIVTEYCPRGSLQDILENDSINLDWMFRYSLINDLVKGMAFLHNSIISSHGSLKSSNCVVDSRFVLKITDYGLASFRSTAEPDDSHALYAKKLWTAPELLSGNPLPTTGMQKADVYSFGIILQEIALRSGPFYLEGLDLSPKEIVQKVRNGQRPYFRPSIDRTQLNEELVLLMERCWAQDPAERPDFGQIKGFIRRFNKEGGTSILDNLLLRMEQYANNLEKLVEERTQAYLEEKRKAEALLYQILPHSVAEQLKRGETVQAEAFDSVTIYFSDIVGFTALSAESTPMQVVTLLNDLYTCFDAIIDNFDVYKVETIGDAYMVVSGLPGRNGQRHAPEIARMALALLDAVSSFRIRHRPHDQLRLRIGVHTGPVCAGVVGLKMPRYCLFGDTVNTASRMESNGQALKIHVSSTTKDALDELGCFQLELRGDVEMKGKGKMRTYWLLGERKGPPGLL
Binder,% Efficacy [1],"EC50 (nM), NPR-B whole cell cGMP assay [1]",EC50 Ratio versus CNP22 [1],Rescue Ratio Average [1],% of control after 240 min (intact peptide by RP-HPLC after incubation with NEP) [2],other results
GLSKGCFGLKLDRIGSMSGLGC [human CNP22],100%,14.7 nM,1,1,0%,"EC50 on NPR-B (nM), whole cell cGMP assay [1]: 4.87 nM; Rescue Ratio versus CNP22 [1]: 1; reduction of ability to generate cGMP (NPRB cells) after 30 min with purified NEP [2]: 50%; reduction of ability to generate cGMP (NPRB cells) after 120 min with purified NEP [2]: 87%; reduction of ability to generate cGMP (NPRB cells) after 30 min with purified IDE [3]: 64%; reduction of ability to generate cGMP (NPRB cells) after 120 min with purified IDE [3]: 99%"
EEEEEESGGGGSGGGKGANKKGLSKGCFGLKLDRIGSMSGLGC [C4(E6) [BC4]],136%,302 nM,20.5,18,94%,–
EEEEEESGGGGSGGGKGANKQGLSKGCFGLKLDRIGSMSGLGC [C6(E6) [BC6]],88%,672 nM,45.7,63,98%,–
EEEEEESGGGGSGGGKGANQQGLSKGCFGLKLDRIGSMSGLGC [C9(E6) [BC9]],95%,1170 nM,79.3,87,98%,–
EEEEEESGGGGSGGGQGANQQGLSKGCFGLKLDRIGSMSGLGC [C5(E6) [BC5]],96%,2360 nM,161,138,100%,–
EEEEEESGGGGSGGGKGANQKGLSKGCFGLKLDRIGSMSGLGC [C7(E6) [BC7]],95%,1010 nM,68.6,80,98%,–
EEEEEESGGGGSGGGQGANKQGLSKGCFGLKLDRIGSMSGLGC [C11(E6) [BC11]],95%,888 nM,60.4,120,102%,–
EEEEEESGGGGSGGGQGANKKGLSKGCFGLKLDRIGSMSGLGC [C8(E6) [BC8]],97%,719 nM,48.9,52,103%,–
EEEEEESGGGGSGGGQGANQKGLSKGCFGLKLDRIGSMSGLGC [C10(E6) [BC10]],156%,2470 nM,168,90,102%,–
GLSKGCFGLKLDRIGSMSGLGCPSSAAPRPNAPSTSA (ends and bridges not checked; cysteine pairing not given here) [CDNP-S3A4A5],–,–,–,–,–,% loss in efficacy versus CDNP (NPR-B selective efficacy gain) [1]: 69%; Approximate fold gain in selectivity versus CDNP (NPR-B over NPR-A) [1]: 14.9 fold; Approximate fold selectivity NPR-B versus NPR-A [1]: 43.5 fold
GLSKGCFGLKLDRIGSMSGLGCPSSADPRPNAPSTSA (ends and bridges not checked; cysteine pairing not given here) [CDNP-S3A4],–,–,–,–,–,% loss in efficacy versus CDNP (NPR-B selective efficacy gain) [1]: 27%; Approximate fold gain in selectivity versus CDNP (NPR-B over NPR-A) [1]: 28.5 fold; Approximate fold selectivity NPR-B versus NPR-A [1]: 83.2 fold
GLSKGCFGLKLDRIGSMSGLGCPSLRAPRPNAPSTSA (ends and bridges not checked; cysteine pairing not given here) [CDNP-A5],–,–,–,–,–,"% efficacy versus CDNP on NPR-B, membrane cGMP assay [1]: 87%; % loss in efficacy versus CDNP (NPR-B selective efficacy gain) [1]: -27%; Approximate fold gain in selectivity versus CDNP (NPR-B over NPR-A) [1]: 5.54 fold; Approximate fold selectivity NPR-B versus NPR-A [1]: 16.2 fold; EC50 ratio versus CDNP on NPR-B, membrane cGMP assay [1]: 0.24; % efficacy versus CDNP on NPR-A, membrane cGMP assay [4]: 114%; EC50 ratio versus CDNP on NPR-A, membrane cGMP assay [4]: 1.33"
GLSKGCFGLKLDRIGSMSGLGCPSSRAPRPNAPSTSA (ends and bridges not checked; cysteine pairing not given here) [CDNP-S3A5],–,–,–,–,–,"% efficacy versus CDNP on NPR-B, membrane cGMP assay [1]: 118%; % loss in efficacy versus CDNP (NPR-B selective efficacy gain) [1]: 82%; Approximate fold gain in selectivity versus CDNP (NPR-B over NPR-A) [1]: 1.23 fold; Approximate fold selectivity NPR-B versus NPR-A [1]: 3.59 fold; EC50 ratio versus CDNP on NPR-B, membrane cGMP assay [1]: 1.08; % efficacy versus CDNP on NPR-A, membrane cGMP assay [4]: 36%; EC50 ratio versus CDNP on NPR-A, membrane cGMP assay [4]: 1.33"
GLSKGCFGLKLDRIGSMSGLGCPSLAAPRPNAPSTSA (ends and bridges not checked; cysteine pairing not given here) [CDNP-A4A5],–,–,–,–,–,"% efficacy versus CDNP on NPR-B, membrane cGMP assay [1]: 85%; % loss in efficacy versus CDNP (NPR-B selective efficacy gain) [1]: 36%; Approximate fold gain in selectivity versus CDNP (NPR-B over NPR-A) [1]: 0.98 fold; Approximate fold selectivity NPR-B versus NPR-A [1]: 2.86 fold; EC50 ratio versus CDNP on NPR-B, membrane cGMP assay [1]: 0.49; % efficacy versus CDNP on NPR-A, membrane cGMP assay [4]: 49%; EC50 ratio versus CDNP on NPR-A, membrane cGMP assay [4]: 0.48"
GLSKGCFGLKLDRIGSMSGLGCPSLADPRPNAPSTSA (ends and bridges not checked; cysteine pairing not given here) [CDNP-A4],–,–,–,–,–,"% efficacy versus CDNP on NPR-B, membrane cGMP assay [1]: 92%; % loss in efficacy versus CDNP (NPR-B selective efficacy gain) [1]: 2%; Approximate fold gain in selectivity versus CDNP (NPR-B over NPR-A) [1]: 17.8 fold; Approximate fold selectivity NPR-B versus NPR-A [1]: 52 fold; EC50 ratio versus CDNP on NPR-B, membrane cGMP assay [1]: 2.31; % efficacy versus CDNP on NPR-A, membrane cGMP assay [4]: 90%; EC50 ratio versus CDNP on NPR-A, membrane cGMP assay [4]: 41.1"
GLSKGCFGLKLDRIGSMSGLGCGGGGSGGGGSGGGGDDDDDD [CNP-14AAlinker-D6 [C4]],156%,2140 nM,146,545,75%,–
EEEEEEHKLRGQEHPNARKYKGANKKGLSKGCFGLKLDRIGSMSGLGC [KB1(E6)],109%,84.5 nM,5.75,5.6,107%,–
EEEEEEHGPQGQEHPNARKYKGANKKGLSKGCFGLKLDRIGSMSGLGC [KA1(E6)],108%,144 nM,9.79,8.2,108%,–
SLRRSSCFGGRMDRIGAQSGLGCNSFRY [atrial natriuretic peptide (ANP)],–,–,–,–,–,"EC50 on NPR-A (nM), whole cell cGMP assay [4]: 1.4 nM"
EEEEEESGGGGSGGGGSGGGGGLSKGCFGLKLDRIGSMSGLGC [C1(E6) [BC1]],97%,1740 nM,118,122,99%,–
DDDDDDGGGGSGGGGSGGGGGLSKGCFGLKLDRIGSMSGLGC [D6-14AAlinker-CNP [C3]],–,–,–,–,101%,–
